Data on two substances can be found in patent US6824994B2, “Peptide ligands that mimic sensor kinases and inhibit response regulators” (priority 2000, dated 2004).

In test [1] the target is T1, phosphoryl transfer from P˜VanS to PhoB (Escherichia coli, UniProt P0AFJ5).
T1 construct: GST (N, cleaved yes); made in house; host or cells: E. coli BL21 lambda DE3 (pGEX-2TK)
The experiment in a line: Phosphotransferase assay, phosphoryl transfer from P˜VanS to PhoB. The class given is biochemical. The conditions noted are these: peptide at 1 mM. As to the method: Phosphotransferase Assay. VanSc-GST (4 pmol) was labeled for 60 minutes at room temperature in a 5 μL volume containing, 50 mM Tris-HCl (pH 7.4), 5 mM MgCl2, and 100 mM KCl. The reaction was initiated by addition of 1 μL of 200 μM [γ-^32P]ATP which contained 1 μCi. After 60 minutes, the 5 μL reaction mixture was added to a 15 μL reaction mixture containing 80 pmol of PhoB and 2.5 mM PMSF all in the same buffer, with the appropriate peptide at a final concentration of 1 mM. Reactions were stopped by the addition of 10 μL of SDS gel loading buffer, and the resultant mixture was fractionated by SDS-PAGE. Phosphoproteins were assessed autoradiographically with a phosphorimager, as previously described.

The next test deals with T2, VanR˜P-PVanH complex (Enterococcus faecium, UniProt Q06239).
T2 construct: GST (N, cleaved yes); made in house; host or cells: E. coli BL21 lambda DE3 (pGEX-2TK); phosphorylated with lithium acetyl phosphate
The experiment in a line: Gel shift analysis of VanR˜P binding to PVanH DNA. Format: biochemical. As to the method:
(§1) Amplification and 5′-End-Labeling of PVanH DNA. A 254 bp DNA fragment containing the PVanH promoter region (residues −191 to 63) was obtained by PCR as described by T. Holman et al., 33 Biochem. 4625-4631 (1994) using a boiled cell preparation of En. faecium A634 as the template source. Amplified PVanH promoter DNA was 5′-end-labeled with [γ-32 P]ATP (specific activity of […]) and phage T4 polynucleotide kinase. The reaction mixture was incubated for 30 minutes at 37° C., and unincorporated ATP was removed by centrifugal gel filtration (Sephadex G-50 spin column, Amersham Pharmacia Biotech).
Phosphorylation of VanR with Acetyl Phosphate. VanR was phosphorylated as described previously in T. Holman et al., 33 Biochem. 4625-4631 (1994). The reaction was performed in a total volume of 100 μL which contained 50 mM HEPES (pH 7.2), 5 mM MgCl2, 50 mM lithium acetyl phosphate, and 9 μM VanR. […]
Gel Shift Analysis of VanR ˜P Binding to PVanH DNA. VanR-PVanH complexes were quantified by gel shift analysis as described by T. Holman et al., 33 Biochem. 4625-4631 (1994). […]
To start the reaction, ^32P-labeled PVanH promoter probe DNA (0.65 ng in 1 μL) was added, and the reaction mixture was incubated on ice for 15 minutes. The resultant VanR˜P-PVanH complexes were analyzed by nondenaturing PAGE. […]
A general note: Mobility shift assays separate free from complexed probe on a gel.

The next test concerns the target T3, VanR-PVanH complex (Enterococcus faecium, UniProt Q06239).
T3 construct: GST (N, cleaved yes); made in house; host or cells: E. coli BL21 lambda DE3 (pGEX-2TK)
The experiment in a line: Inhibition of the interaction between 32P-labeled PVanH promoter DNA and VanR. Format: biochemical. As to conditions: chemically synthesized peptide in disulfide form; 32P-labeled PVanH DNA segment. The method, then:
as §1
Gel Shift Analysis of VanR ˜P Binding to PVanH DNA. VanR-PVanH complexes were quantified by gel shift analysis as described by T. Holman et al., 33 Biochem. 4625-4631 (1994). Complexes were formed in a total volume of 15 μL which contained 4 pmol of VanR-P, which was preincubated with the appropriate effector peptides (as aqueous solutions) for 10 minutes at room temperature in 20 mM HEPES (pH 7.2), 5 mM MgCl2, 0.1 mM Na2EDTA, 0.5 mM CaCl2, 10% glycerol, and 0.5 μg of salmon sperm DNA.
To start the reaction, ^32P-labeled PVanH promoter probe DNA (0.65 ng in 1 μL) was added, and the reaction mixture was incubated on ice for 15 minutes. The resultant VanR˜P-PVanH complexes were analyzed by nondenaturing PAGE. See generally J. Sambrook et al., Molecular Cloning: A Laboratory Manual, 2nd Ed. […]

The target in the next test is T4, VanR (Enterococcus faecium, UniProt Q06239).
T4 construct: GST (N, cleaved yes); made in house; host or cells: E. coli BL21 lambda DE3 (pGEX-2TK)
The test can be described thus: Phage ELISA of phage-displayed peptides binding to immobilised VanR. The conditions noted are these: cloned N-terminal regulatory domain of VanR. The method, then:
Phage Display. Phage display was performed using the methods described by A. Sparks et al., Phage Display Of Peptides And Proteins; A Laboratory Manual (1996). Microtiter plate wells were coated with purified VanR and used to select binding phage from a library displaying combinatorial peptides, i.e., 10 random NNK codons followed by a Cys codon, TGC, in the eleventh position (N is A, G, C, or T, and K is G or T). After three rounds of selection, the binding of individual phage clones to the VanR target protein was assessed by phage-ELISA using an anti-M13 phage monoclonal antibody-horseradish peroxidase conjugate (Pharmacia). Ninety-six phage plaques were picked from the third round of selection and tested for their ability to bind to VanR and to BSA, by phage ELISA, to determine levels of specific and background binding, respectively.
For inserting determinants for desired peptide sequences into phage M13 DNA, oligonucleotides encoding the defined peptide sequences were cloned into the XhoI and XbaI sites within gene III of bacteriophage M13. The resulting recombinant phage were then tested for binding to various protein targets, immobilized within microtiter plate wells, by phage ELISA. […]
Sequence Analysis of Combinatorial Peptides. […] The deduced peptide sequences were further analyzed by alignment with the amino acid sequence of VanS using the program MultAlin. […]

Entries after “also recorded” stand apart in the source; their conditions may differ.

T4 sequence (Q06239 whole entry): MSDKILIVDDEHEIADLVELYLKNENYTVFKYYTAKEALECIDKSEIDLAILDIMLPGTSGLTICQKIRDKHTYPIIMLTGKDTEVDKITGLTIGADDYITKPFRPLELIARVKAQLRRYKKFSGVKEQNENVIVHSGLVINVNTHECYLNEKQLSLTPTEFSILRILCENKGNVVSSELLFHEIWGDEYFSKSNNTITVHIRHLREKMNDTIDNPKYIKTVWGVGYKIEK
T2 sequence (Q06239 whole entry, one chain of several): as the sequence (Q06239 whole entry) above
T1 sequence (P0AFJ5 whole entry): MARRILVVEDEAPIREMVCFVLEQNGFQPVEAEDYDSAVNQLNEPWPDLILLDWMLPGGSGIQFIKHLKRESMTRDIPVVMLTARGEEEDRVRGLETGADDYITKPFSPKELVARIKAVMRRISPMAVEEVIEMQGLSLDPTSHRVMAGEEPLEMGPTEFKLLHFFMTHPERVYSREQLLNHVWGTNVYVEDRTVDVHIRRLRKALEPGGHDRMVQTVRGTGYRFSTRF
T3 sequence (Q06239 whole entry, one chain of several): as the sequence (Q06239 whole entry) above

In the case of “SEQ ID NO. 2: modified peptide derived from SEQ ID NO. 1, more closely resembling VanS; the two Cys replaced with Ala and Ser (SLAHDSIIGYLS)”, the “inhibition of phosphoryl transfer from VanS˜P to PhoB” value in test [1] is reported as “inhibited phosphoryl transfer”. The “inhibition of the binding of VanR˜P to DNA segment of cognate promoter PVanH” value with VanR˜P-PVanH complex is reported as “found to inhibit the binding of VanR˜P”.
Consider “SEQ ID NO. 1: dodecamer peptide selected from a combinatorial phage-display library for binding to VanR; contains two Cys residues (SLCHDSVIGWEC)”, for which the “inhibition of the binding of VanR˜P to DNA segment of cognate promoter PVanH” value with VanR˜P-PVanH complex is given as “found to inhibit the binding of VanR˜P”. The “inhibition of the interaction between VanR and PVanH” value with VanR-PVanH complex was “inhibited the interaction between VanR and PVanH”. The “binding to the regulatory domain of VanR” value with VanR is reported as “localized to the N-terminal, regulatory domain of VanR; also recorded: bound reproducibly to the cloned regulatory domain of VanR preferentially”.
